According to patent US20250179152A1:

Target: wild type Δ19 spike protein on pseudotyped lentivirus (SARS-CoV-2 (Wuhan-1)), P0DTC2
Assay: cell-based or functional assay

Binder	IC50, pseudotyped lentivirus	Neutralization IC50, pseudotyped lentivirus	fold enhancement of neutralization IC50 upon trimerization (against SR16m)
SR16m (designed binder) MGSSDLGKKLLEAARAGQDDEVRILMANGADVNALDLFGVTPLHLAAERGHLEIVEVLLKNGADVNAGDAFGRTPLHLAALGGHLEIVEVLLKNGADVNACDLYGVTPLHLAAGLGHLEIVEVLLKNGADVNAQDKFGKTAFDISIDNGNEDLAEILQSSSKLAAALEHHHHHH	11 µM	11.6 µM	–
SR22 (designed binder) MGSSHHHHHHSSGLVPRGSHMEQKLISEEDLGSDLGKKLLEAARAGQDDEVRILMANGADVNACDPSGITPLHLAADKGHLEIVEVLLKYGADVNAMDVWGRTPLHLAAFTGHLEIVEVLLKYGADVNACDLNGYTPLHLAAGRGHLEIVEVLLKNGAGVNAQDKFGKTAFDISIDNGNEDLAEILQSSS	–	0.7 µM	–
FSR16m (designed binder) MGMEQKLISEEDLDGYIPEAPRDGQAYVRKDGEWVLLSTFLGGGGSLQGGGGSLQGSDLGKKLLEAARAGQDDEVRILMANGADVNALDLFGVTPLHLAAERGHLEIVEVLLKNGADVNAGDAFGRTPLHLAALGGHLEIVEVLLKNGADVNACDLYGVTPLHLAAGLGHLEIVEVLLKNGADVNAQDKFGKTAFDISIDNGNEDLAEILQSSSKLAAALEHHHHHH	–	–	35000 fold
